Two molecules from patent WO2016171242A1 (dated 2016) can be followed below.

Experiment [1] has as its target T1, human EPHB3 without signal sequence, FLAG-tagged, expressed from pFLAG-EPHB3 (human, UniProt P54753 38-998).
T1 construct: not shown: FLAG tag supplied by the vector pFLAG-GW
T1 sequence: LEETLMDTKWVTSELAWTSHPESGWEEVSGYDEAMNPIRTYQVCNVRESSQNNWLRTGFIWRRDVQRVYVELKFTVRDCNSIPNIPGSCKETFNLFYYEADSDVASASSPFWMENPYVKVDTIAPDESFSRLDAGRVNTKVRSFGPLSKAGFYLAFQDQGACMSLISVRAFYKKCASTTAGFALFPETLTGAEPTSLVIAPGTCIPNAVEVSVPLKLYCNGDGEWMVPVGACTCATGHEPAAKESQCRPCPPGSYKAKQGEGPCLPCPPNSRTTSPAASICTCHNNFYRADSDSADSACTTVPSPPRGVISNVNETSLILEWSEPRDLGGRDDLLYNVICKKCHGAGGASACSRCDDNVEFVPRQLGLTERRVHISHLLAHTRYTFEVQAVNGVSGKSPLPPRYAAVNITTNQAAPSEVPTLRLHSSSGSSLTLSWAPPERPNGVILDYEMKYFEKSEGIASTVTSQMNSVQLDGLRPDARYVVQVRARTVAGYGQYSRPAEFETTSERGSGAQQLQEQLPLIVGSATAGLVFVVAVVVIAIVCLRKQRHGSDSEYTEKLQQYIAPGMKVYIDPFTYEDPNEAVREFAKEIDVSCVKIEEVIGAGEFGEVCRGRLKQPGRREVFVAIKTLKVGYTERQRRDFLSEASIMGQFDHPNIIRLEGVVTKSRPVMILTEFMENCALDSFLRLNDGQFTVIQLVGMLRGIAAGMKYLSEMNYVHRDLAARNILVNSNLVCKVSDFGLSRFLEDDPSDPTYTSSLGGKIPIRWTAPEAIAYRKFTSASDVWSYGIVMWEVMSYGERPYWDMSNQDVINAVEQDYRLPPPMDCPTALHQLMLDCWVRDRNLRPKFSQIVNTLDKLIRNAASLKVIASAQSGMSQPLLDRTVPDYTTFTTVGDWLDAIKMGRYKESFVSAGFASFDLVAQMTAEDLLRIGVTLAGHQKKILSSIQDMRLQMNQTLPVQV
The experiment in a line: flow cytometry on transfected 293F cells. Background: A flow cytometer gives signals particle by particle.

For experiment [2], the target named is T2, human EPHB1 without signal sequence, FLAG-tagged, expressed from pFLAG-EPHB1 (human, UniProt P54762 18-984).
T2 construct: not shown: FLAG tag supplied by the vector pFLAG-GW
T2 sequence: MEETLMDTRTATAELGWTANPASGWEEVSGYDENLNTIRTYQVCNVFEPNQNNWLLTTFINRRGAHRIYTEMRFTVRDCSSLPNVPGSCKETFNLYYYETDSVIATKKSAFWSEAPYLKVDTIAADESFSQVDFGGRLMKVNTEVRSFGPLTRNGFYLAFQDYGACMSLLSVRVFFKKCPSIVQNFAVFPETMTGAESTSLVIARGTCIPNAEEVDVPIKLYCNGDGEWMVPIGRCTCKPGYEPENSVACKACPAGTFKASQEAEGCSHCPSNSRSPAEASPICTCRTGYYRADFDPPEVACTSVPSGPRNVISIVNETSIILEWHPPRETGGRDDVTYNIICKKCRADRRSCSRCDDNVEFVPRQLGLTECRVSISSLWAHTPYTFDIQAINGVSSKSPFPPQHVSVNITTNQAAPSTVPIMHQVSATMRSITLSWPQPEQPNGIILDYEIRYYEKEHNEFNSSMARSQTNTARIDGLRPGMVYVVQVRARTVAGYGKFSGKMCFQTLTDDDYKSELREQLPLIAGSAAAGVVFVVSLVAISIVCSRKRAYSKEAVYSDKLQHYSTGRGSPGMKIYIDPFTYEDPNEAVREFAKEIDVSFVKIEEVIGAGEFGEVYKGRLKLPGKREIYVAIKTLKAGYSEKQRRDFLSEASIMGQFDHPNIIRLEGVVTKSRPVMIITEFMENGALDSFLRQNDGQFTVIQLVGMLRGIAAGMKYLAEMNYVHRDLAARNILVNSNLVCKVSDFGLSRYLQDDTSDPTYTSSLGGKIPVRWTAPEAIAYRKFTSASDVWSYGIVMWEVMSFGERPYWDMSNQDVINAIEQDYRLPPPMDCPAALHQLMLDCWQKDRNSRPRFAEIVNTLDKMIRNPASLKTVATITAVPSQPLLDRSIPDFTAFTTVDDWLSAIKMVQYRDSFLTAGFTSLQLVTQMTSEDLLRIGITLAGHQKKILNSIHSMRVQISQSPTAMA
The experiment in a line: flow cytometry on 293F cells transfected with pFLAG-EPHB1.

Experiment [3] addresses T3, human EPHA4 without signal sequence, FLAG-tagged, expressed from pFLAG-EPHA4 (human, UniProt P54764 20-986).
T3 construct: also called EPHA4-expressing cells; not shown: FLAG tag supplied by the vector pFLAG-GW
The experiment in a line: immunohistochemistry on formalin-fixed, paraffin-embedded 293F cells transiently expressing EPHA4; antibody at 2.5 μg/mL.

In experiment [4] the target is T2, human EPHB1 without signal sequence, …. Nature of the experiment: flow cytometry on transfected 293F cells.

T3 sequence (P54764 20-986): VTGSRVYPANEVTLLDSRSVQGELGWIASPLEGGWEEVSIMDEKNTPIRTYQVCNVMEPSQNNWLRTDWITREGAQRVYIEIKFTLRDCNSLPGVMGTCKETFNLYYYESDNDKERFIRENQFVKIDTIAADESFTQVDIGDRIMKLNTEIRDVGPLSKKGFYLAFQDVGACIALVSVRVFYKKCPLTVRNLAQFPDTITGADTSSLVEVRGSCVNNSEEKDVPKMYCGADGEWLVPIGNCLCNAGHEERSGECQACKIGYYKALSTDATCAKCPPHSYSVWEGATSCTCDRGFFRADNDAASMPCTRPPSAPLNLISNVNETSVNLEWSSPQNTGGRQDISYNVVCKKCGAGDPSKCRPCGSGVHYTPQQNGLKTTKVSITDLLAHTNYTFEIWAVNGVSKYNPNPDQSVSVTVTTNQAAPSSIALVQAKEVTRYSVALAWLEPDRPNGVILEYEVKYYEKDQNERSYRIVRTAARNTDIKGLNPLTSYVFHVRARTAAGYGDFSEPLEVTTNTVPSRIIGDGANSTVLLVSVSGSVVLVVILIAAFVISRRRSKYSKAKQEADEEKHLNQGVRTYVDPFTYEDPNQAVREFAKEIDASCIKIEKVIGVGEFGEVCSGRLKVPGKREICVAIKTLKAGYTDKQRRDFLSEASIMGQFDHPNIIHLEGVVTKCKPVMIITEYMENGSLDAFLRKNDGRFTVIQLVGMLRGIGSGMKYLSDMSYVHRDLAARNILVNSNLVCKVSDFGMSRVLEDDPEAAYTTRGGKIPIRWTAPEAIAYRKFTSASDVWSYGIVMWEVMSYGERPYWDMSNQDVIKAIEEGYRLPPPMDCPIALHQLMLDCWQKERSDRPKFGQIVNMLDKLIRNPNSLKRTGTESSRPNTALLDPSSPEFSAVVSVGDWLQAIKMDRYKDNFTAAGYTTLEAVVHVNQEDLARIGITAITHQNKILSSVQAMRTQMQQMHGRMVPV

B1: mouse anti-human EPHA2 antibody A201 (antibody, V domains shown)
VH: EVQLQQSGAELVKPGASVKLSCTVSGFTFKDTYVHWVKQRPEQGLEWIGRIDPANANTKYDPKFQGKASITADTSSNTAYLQLSSLPSEDTAVYYCAAYGKSAWFAYWGQGTLVTVSA
VL: DIQMTQTTSSLSASLGDRVTISCRASQDIGNYLNWYQQKPDGTVKVLIYYTSRLHSGVPSRFSGSGSGTDYSLTISNLEQEDIATYFCQQGHSLPPTFGGGTKLEIKR
notes: Mouse monoclonal antibody purified from hybridoma supernatant, isotype IgG1; also called A201 antibody
In the case of B1, the binding result is reported as “no binding” in experiment [1], “binds” in experiment [2] and “binds” in experiment [3].

B2: mouse anti-human EPHA2 antibody A205 (antibody, V domains shown)
VH: QIQLVQSGPELKKPGETVKISCKASGYTFTDYSMNWVKQAPGKGLKWMGWINTYTGEPTYADDFKGRFAFSLETSASTAYLQINNLKNEDTATYFCASPISLLRLLDYWGQGTTLTVSS
VL: DVVMTQTPLSLPVSLGDQASIPCRSSQSLVHSNGNTYLHWYLQKPGQSPKLLIYKVSNRFSGVPDRFSGSGSGTDFTLKISRVEAEDLGVYFCSQSTHVPWTFGGGTKLEIKR
notes: Mouse monoclonal antibody purified from hybridoma supernatant, isotype IgG2b; also called A205 antibody
B2: the binding result in experiment [1] and in experiment [4] was “no binding” in each case.
